Drawing on the supplement of paper PMC10567573, this text covers protein stability index for 36 sequences.

The series can be described thus: protein stability index of a GFP-peptide fusion (GPS, HEK-293T) (PSI 1-6); higher = more stable. To be noted: c terminus: a fixed tail appended.

± gives the standard deviation.
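Also: 24-mer peptide tiles fused after GFP, lentivirally expressed, FACS-sorted into six equal bins by GFP/DsRed ratio, decoded by Illumina sequencing, PSI is the read-weighted mean bin number.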

Regarding ATHILVRQQGNPGHRSIYLALKLP [ADAMTS4], the protein stability index (treatment: DMSO) was found to be 2.92 ± 0.62 and the protein stability index (treatment: MLN4924 1 uM, 8 h) stood at 2.1 ± 0.35.
With DGNKDVYLSLLRMYLSPPSIHCLG [VPS39], the protein stability index (treatment: DMSO) is 2.94 ± 0.57 and the protein stability index (treatment: MLN4924 1 uM, 8 h) is 2.72 ± 0.33.
Take PDFILKVVIDKHPVRFFVHKRPHV [CTDNEP1]: the protein stability index was found to be 2.46 ± 0.56 (treatment: DMSO) and 2.44 ± 0.76 (treatment: MLN4924 1 uM, 8 h).
For LGDEICCWSFYGQGRKIAEVCCTS [KCTD13], the protein stability index reads like this: (treatment: DMSO) 2.15 ± 0.1; (treatment: MLN4924 1 uM, 8 h) 2.1 ± 0.29.
The matching figures for NFEEMRALLDSLPPPVESELALFQ [KLHL14]: 3.46 ± 0.45 and 3.91 ± 0.28.
With AYACLVCGKYFQGRGLKSHAYIHS [USP39], the protein stability index runs as follows: (treatment: DMSO) 2.29 ± 0.27; (treatment: MLN4924 1 uM, 8 h) 2.51 ± 0.52.
As for PVIAAPSMWTRPQIKDFKEKIQQD [ACBD3], the protein stability index runs as follows: (treatment: DMSO) 4.59 ± 0.32; (treatment: MLN4924 1 uM, 8 h) 4.41 ± 0.4.
For TNCQKVLNMWCCCFFKRRKRKTIQ [CSNK1G3], the protein stability index was 4.01 ± 0.26 (treatment: DMSO) and 3.77 ± 0.21 (treatment: MLN4924 1 uM, 8 h).
In turn, DSVKVALLETNPYLLALTIIVSIV [CLPTM1] displayed a protein stability index (treatment: DMSO) of 2.08 ± 0.28 and a protein stability index (treatment: MLN4924 1 uM, 8 h) of 2.3 ± 0.14.
With KEHPDVQLLEDAILIIQGVLSDIN [NET1], the protein stability index turned out to be 2.49 ± 0.73 (treatment: DMSO) and 2.47 ± 0.23 (treatment: MLN4924 1 uM, 8 h).
For SPSKTDGKELAGTMDGEGTLFQTE [PBXIP1] the same measures were 5.31 ± 0.24 and 5.44 ± 0.3.
For GTIKKIIHQETVSKNGNGLKNTPR [PCMTD2] the same measures were 3.68 ± 0.55 and 4.03 ± 0.4.
The matching figures for SCPEGDASECPQATNAKDSGCSSP [PPEF2]: 5.63 ± 0.34 and 5.7 ± 0.27.
On to YHRRHNPKTNEDFEFLYNALEFWR [IQUB], for which the protein stability index was found to be 1.86 ± 0.36 (treatment: DMSO) and 2.61 ± 0.82 (treatment: MLN4924 1 uM, 8 h).
Turning to TGFPQYAQLYEDFLFPIDISLVKR [DLC1], the protein stability index was found to be 2.37 ± 0.24 (treatment: DMSO) and 2.35 ± 0.54 (treatment: MLN4924 1 uM, 8 h).
For CLGVHCDFHQGLLSFYNARTKQVL [FSD1] the same measures were 2.42 ± 0.69 and 2.27 ± 0.18.
The matching figures for YPDQSPSEDWTMEERFRPLTFHGL [CLCN6]: 3.23 ± 0.18 and 3.37 ± 0.18.
The matching figures for EVIISWSEKASKKYVSKELAKEIR [EIF5]: 2.34 ± 0.15 and 2.57 ± 0.26.
As for DHSGFISLDEFRQTWKLFSSHMNI [PPEF2], the protein stability index is, setting by setting: (treatment: DMSO) 2.29 ± 0.26; (treatment: MLN4924 1 uM, 8 h) 2.08 ± 0.36.
For EALGFSWHDTCFVCAICQINLEGK [PDLIM7] the same measures were 2.48 ± 0.82 and 1.63 ± 0.26.
With MDIGQPKDFLTGMCLFLQSLRQKQ [GMPPB], the protein stability index was 2.46 ± 0.11 (treatment: DMSO) and 2.72 ± 0.39 (treatment: MLN4924 1 uM, 8 h).
Consider TGIVNHTHSRMGSIMSTGIVQGSS [CARM1], for which the protein stability index (treatment: DMSO) was 3.12 ± 0.2 and the protein stability index (treatment: MLN4924 1 uM, 8 h) was 3.5 ± 0.63.
As to SKESSKEKKLTVRQDLEDRYAEHV [C22orf31], the protein stability index by setting is: (treatment: DMSO) 5.09 ± 0.27; (treatment: MLN4924 1 uM, 8 h) 5.16 ± 0.1.
As for DTVFRFDPRYNKWMQVASLNEKRT [KLHL13], the protein stability index runs as follows: (treatment: DMSO) 2.87 ± 0.41; (treatment: MLN4924 1 uM, 8 h) 3.14 ± 0.41.
For PPTRGPPPSYGGSSRYDDYSSSRD [RBMX] the same measures were 5.05 ± 0.23 and 4.93 ± 0.19.
For PDPSHSPSDKVGRADAHLGSSSVA [TOR1AIP2], the protein stability index by setting is: (treatment: DMSO) 4.98 ± 0.37; (treatment: MLN4924 1 uM, 8 h) 4.68 ± 0.95.
The matching figures for VPQALSATTYKHGVLTRKTHADMD [PSD2]: 4.47 ± 0.18 and 4.56 ± 0.12.
The matching figures for AVGKMGFVVTMLKLIQKKLLDKTC [ZER1]: 2.29 ± 0.64 and 2.35 ± 0.8.
QAQQKKAPAKKANSTTTAGRDHFL [BRD3]: the protein stability index was found to be 4.44 ± 0.48 (treatment: DMSO) and 4.62 ± 0.15 (treatment: MLN4924 1 uM, 8 h).
Regarding NALKDARAKLDELEGALHQAKEEL [KRT71], the protein stability index by setting is: (treatment: DMSO) 5.06 ± 0.38; (treatment: MLN4924 1 uM, 8 h) 4.97 ± 0.095.
In the case of ERSDLEEDNEREGTENGAIDAVPV [ZC3H15], the protein stability index reads like this: (treatment: DMSO) 5.5 ± 0.19; (treatment: MLN4924 1 uM, 8 h) 5.5 ± 0.33.
For AGPNGTLFVADAYKGLFEVNPWKR [APMAP] the same measures were 2.39 ± 0.28 and 2.72 ± 0.31.
SVVTTARMQVLKRQVQSLMVHQRK [SMARCE1]: the protein stability index is, setting by setting: (treatment: DMSO) 2.79 ± 0.14; (treatment: MLN4924 1 uM, 8 h) 2.94 ± 0.27.
The matching figures for GLSLTDESDSCVSFEAPLTPLIQQ [PSD2]: 4.29 ± 0.35 and 4.15 ± 0.29.
For EKGEKGDRAGDASKDILLGPWDMV [SCARA5], the protein stability index is, setting by setting: (treatment: DMSO) 4.41 ± 0.37; (treatment: MLN4924 1 uM, 8 h) 4.71 ± 0.36.
Consider SHAWEVALGGLQSWRVGVVRVRQD [TRIM35], for which the protein stability index runs as follows: (treatment: DMSO) 2.47 ± 0.26; (treatment: MLN4924 1 uM, 8 h) 2.35 ± 0.36.
